Laboratory results reported in publication PMC6331642.

How the values were obtained:
P35670 [1] = experiment: SEC-MALS; Cu-WLN4 after incubation with TM; Superdex 75 10/300 GL, 50 mM MES pH 6.0, 150 mM NaCl, room temperature
P35670 [2] = experiment: SEC-MALS; apo-WLN4 after incubation with TM; Superdex 75 10/300 GL, 50 mM MES pH 6.0, 150 mM NaCl, room temperature
O00244 [3] = experiment: SEC-MALS; Cu-Atox1 after reaction with TM, with 4.5 mM reducing agents
O00244 [4] = experiment: SEC-MALS; apo-Atox1 after reaction with TM, with 4.5 mM reducing agents

Protein | N with TM (P35670 [1]) | N with TM (P35670 [2]) | N with TM (O00244 [3]) | N with TM (O00244 [4])
WLN4, the fourth metal-binding domain of Wilson's disease protein (ATP7B) (protein) TCSTTLIAIAGMTCASCVHSIEGMISQLEGVQQISVSLAEGTATVLYNPSVISPEELRAAIEDMGFEASVVS | 2 | 2 |  | 
Atox1 copper chaperone (protein) MPKHEFSVDMTCGGCAEAVSRVLNKLGGVKYDIDLPNKKVCIESEHSMDTLLATLKKTGKTVSYLGLE |  |  | both apo-Atox1 and Cu-Atox1 generated dimeric adducts following reaction with TM | both apo-Atox1 and Cu-Atox1 generated dimeric adducts following reaction with TM
